Measurements as given in IntAct's records for PubMed 23395182.

B1: Syndecan-1 (Homo sapiens), P18827 (parent)
chain: MRRAALWLWLCALALSLQPALPQIVATNLPPEDQDGSGDDSDNFSGSGAGALQDITLSQQTPSTWKDTQLLTAIPTSPEPTGLEATAASTSTLPAGEGPKEGEAVVLPEVEPGLTAREQEATPRPRETTQLPTTHLASTTTATTAQEPATSHPHRDMQPGHHETSTPAGPSQADLHTPHTEDGGPSATERAAEDGASSQLPAAEGSGEQDFTFETSGENTAVVAVEPDRRNQSPVDQGATGASQGLLDRKEVLGGVIAGGLVGLIFAVCLVGFMLYRMKKKDEGSYSLEEPKQANGGAYQKPTKQEEFYA
B2: Rho guanine nucleotide exchange factor TIAM1 (Homo sapiens), Q13009 (parent)
chain: MGNAESQHVEHEFYGEKHASLGRKHTSRSLRLSHKTRRTRHASSGKVIHRNSEVSTRSSSTPSIPQSLAENGLEPFSQDGTLEDFGSPIWVDRVDMGLRPVSYTDSSVTPSVDSSIVLTAASVQSMPDTEESRLYGDDATYLAEGGRRQHSYTSNGPTFMETASFKKKRSKSADIWREDSLEFSLSDLSQEHLTSNEEILGSAEEKDCEEARGMETRASPRQLSTCQRANSLGDLYAQKNSGVTANGGPGSKFAGYCRNLVSDIPNLANHKMPPAAAEETPPYSNYNTLPCRKSHCLSEGATNPQISHSNSMQGRRAKTTQDVNAGEGSEFADSGIEGATTDTDLLSRRSNATNSSYSPTTGRAFVGSDSGSSSTGDAARQGVYENFRRELEMSTTNSESLEEAGSAHSDEQSSGTLSSPGQSDILLTAAQGTVRKAGALAVKNFLVHKKNKKVESATRRKWKHYWVSLKGCTLFFYESDGRSGIDHNSIPKHAVWVENSIVQAVPEHPKKDFVFCLSNSLGDAFLFQTTSQTELENWITAIHSACATAVARHHHKEDTLRLLKSEIKKLEQKIDMDEKMKKMGEMQLSSVTDSKKKKTILDQIFVWEQNLEQFQMDLFRFRCYLASLQGGELPNPKRLLAFASRPTKVAMGRLGIFSVSSFHALVAARTGETGVRRRTQAMSRSASKRRSRFSSLWGLDTTSKKKQGRPSINQVFGEGTEAVKKSLEGIFDDIVPDGKREKEVVLPNVHQHNPDCDIWVHEYFTPSWFCLPNNQPALTVVRPGDTARDTLELICKTHQLDHSAHYLRLKFLIENKMQLYVPQPEEDIYELLYKEIEICPKVTQSIHIEKSDTAADTYGFSLSSVEEDGIRRLYVNSVKETGLASKKGLKAGDEILEINNRAADALNSSMLKDFLSQPSLGLLVRTYPELEEGVELLESPPHRVDGPADLGESPLAFLTSNPGHSLCSEQGSSAETAPEETEGPDLESSDETDHSSKSTEQVAAFCRSLHEMNPSDQSPSPQDSTGPQLATMRQLSDADKLRKVICELLETERTYVKDLNCLMERYLKPLQKETFLTQDELDVLFGNLTEMVEFQVEFLKTLEDGVRLVPDLEKLEKVDQFKKVLFSLGGSFLYYADRFKLYSAFCASHTKVPKVLVKAKTDTAFKAFLDAQNPKQQHSSTLESYLIKPIQRILKYPLLLRELFALTDAESEEHYHLDVAIKTMNKVASHINEMQKIHEEFGAVFDQLIAEQTGEKKEVADLSMGDLLLHTTVIWLNPPASLGKWKKEPELAAFVFKTAVVLVYKDGSKQKKKLVGSHRLSIYEDWDPFRFRHMIPTEALQVRALASADAEANAVCEIVHVKSESEGRPERVFHLCCSSPESRKDFLKAVHSILRDKHRRQLLKTESLPSSQQYVPFGGKRLCALKGARPAMSRAVSAPSKSLGRRRRRLARNRFTIDSDAVSASSPEKESQQPPGGGDTDRWVEEQFDLAQYEEQDDIKETDILSDDDEFCESVKGASVDRDLQERLQATSISQRERGRKTLDSHASRMAQLKKQAALSGINGGLESASEEVIWVRREDFAPSRKLNTEI
partner: B1 chain

Variants of: B1
Settings: with tiam1_human TIAM1, Q13009

Row | effect of a mutation on the interaction | Variant
1 | decreasing interaction strength | MRRAALWLWLCALALSLQPALPQIVATNLPPEDQDGSGDDSDNFSGSGAGALQDITLSQQTPSTWKDTQLLTAIPTSPEPTGLEATAASTSTLPAGEGPKEGEAVVLPEVEPGLTAREQEATPRPRETTQLPTTHLASTTTATTAQEPATSHPHRDMQPGHHETSTPAGPSQADLHTPHTEDGGPSATERAAEDGASSQLPAAEGSGEQDFTFETSGENTAVVAVEPDRRNQSPVDQGATGASQGLLDRKEVLGGVIAGGLVGLIFAVCLVGFMLYRMKKKDEGSYSLEEPKQANGGAYQKPTKQKEFYA [E306K]

Variants of: B2
Settings: with sdc1_human SDC1, P18827

Row | effect of a mutation on the interaction | Variant
2 | decreasing interaction strength | K879E
3 | decreasing interaction strength | K912E
